Results taken from the DeepSol protein solubility set.

Test: soluble on expression in E. coli; label from the status in PepcDB or PDB records

Row | Sequence | soluble on expression in E. coli
1 | EQVVARKKLEESESRFRALVNASSDVVYRMNADWTVMRELEGRDFLTPAGTAMADWVETYTYREDRALVKATAAAAIEGKRIFELEHRVLKADGTIGWTFSRAIPILDEQGNIIEWFGSAADIT | not soluble
2 | MAELLLGVNIDHIATLRNARGTDYPDPVQAAFIAEQAGADGITVHLREDRRHITDRDVRILRQTLHTRMNLEMAVTEEMLAIAVETRPHFCCLVPEKRQEVTTEGGLDVAGQRDKMRDACARLAAAGIQVSLFIDADETQINAAAEVGAPFIEIHTGCYANAETDAEQAKELARIASAATLAARLGLKVNAGHGLTYHNVKAIAALPEMHELNIGHAIIGRAVMTGLKEAVAEMKRLMLEARG | not soluble
3 | MGSDKIHHHHHHMTLRLHEYVEKESFNHPYTFVAAQTGLDEKTVRDIFNARAEFLGRWHRFETPRILGIDELYLNKRYRCILTNIEERTLLDLLATRRQNVVTNYLMKLKDRQKVEIVSMDMWNPYRAAVKAVPPQARIVVDKFHVVRMANDALERVRKGLRKELKPSQSRTLKGDRKILLKRAHEVSDRERLIMETWTGAFPQLLAAYEHKERFYGIWDATTRLQAEAALDEWIATIPKGQKEVWSDLVRAVGNWREETMTYFETDMPVTNAYTESINRLAKDKNREGRGYSFEVMRARMLYTTKHKKKAPTAKVSPFYKKTIGYGLPDFAEELNYGVDLSTI | not soluble
4 | MGSDKIHHHHHHMESEIKTRGFAIDVSRDKLTVAKAELVITQEKREVEVNEVREFKYDNEGIEELIKFLGEYKEGIMESTGPYFFYLHEELTEKGYKVTLINPLHLKEVFGKKTDKLDAQRLAKAFILGAVKGSYIPTGEIRELRELTRYRESLMRKITQVKNEIRKFLEMAGYKIEPFDKRGMALLEKLSRGEGLSKEERDELKEKLGRSLNDAEKLALKQLVDLLKSLEAMVKEVEDMIISKIPQPVVELSRELV | not soluble
5 | MKKVLITGFEPFGGDSKNPTEQIAKYFDRKQIGNAMVYGRVLPVSVKRATIELKRYLEEIKPEIVINLGLAPTYSNITVERIAVNIIDARIPDNDGYQPIDEKIEEDAPLAYMATLPVRAITKTLRDNGIPATISYSAGTYLCNYVMFKTLHFSKIEGYPLKAGFIHVPYTPDQVVNKFFLLGKNTPSMCLEAEIKAIELAVKVSLDYLEKDRDDIKIPL | soluble
6 | LKISTKGRYGLEAIVDLAIHSSEGRVSLKSIAERCGMSEAYILQIFLILRRAGIVESIRGAQGGYVLARDPSQITVGEILTVLEGPLAPVPCIAEKTKRSKSSCERYENCTARSFWEKIMNTLNDVANSITVEDLVKCYNSTVSQNTELEYYI | soluble
7 | MPVLHNRISNDALKAKMLAESEPRTTISFYKYFHIADPKATRDALYQLFTALNVFGRVYLAHEGINAQISVPASNVETFRAQLYAFDPALEGLRLNIALDDDGKSFWVLRMKVRDRIVADGIDDPHFDASNVGEYLQAAEVNAMLDDPDALFIDMRNHYEYEVGHFENALEIPADTFREQLPKAVEMMQAHKDKKIVMYCTGGIRCEKASAWMKHNGFNKVWHIEGGIIEYARKAREQGLPVRFIGKNFVFDERMGERISDEIIAHCHQCGAPCDSHTNCKNDGCHLLFIQCPVCAEKYKGCCSEICCEESALPPEEQRRRRAGRENGNKIFNKSRGRLNTTLGIPDPTE | not soluble
8 | MSKKTLSTVNYQLSTDTMCLAIPGQVIEIREENGLKMGTVDISGALTKACLEYVPEIAIGQYTIVHAGFALKIIDEKEAAESLKLWDELIKSGAFDVDGELPPSPIQKPEA | not soluble
9 | MCTGIKIISKTNDIFYGRTMDFTFDFFGNEDPIAPKIPTLIAQFPKGTVLNSQLNPWTAKYAFMGLAMSGTDQPANDGKTVSLAITDGINEAGLSGDIQYLMESSTAPAESLADRGLTPHIAEEVLAYILSNFESVDEVKVAFEKIGLLDQKFQLDSLGEVHFTLHWTINDKNNNSIVLQPTDNGAFVIYDSIGVVTNSPEYNYHLTNARNYIGMRNYAIKEPYTLKSGATLDPIEGGTSYGLLGIPGDFTSPSRFIRALYYSDNLQEFDSSEGIMQLYRAFQTVMIPRGIGHLGQSNSLSDFTHYWSGYDVTNLTMYVQPESTTSFTKYTLDPALTEVTTFAVSNELLLTDLNQ | not soluble
10 | MPKNKGKGGKNRRRGKNDSEGDKRELVFKEEGQEYGQVQRMLGNGRLDAYCFDGQKRLCHIRGKMRKKVWVNPGDIVLVSLRDFQDSKGDIILKYTPDEARALKSKGEIPETTKINE | soluble
11 | MAHHHHHHSLSELVIESWRADDKALWEQKIIPAFEAANPGIKVKFNPVPNVNYTPTLWENLKAGKAGDLITCRPFDDSLALFKAGHLAEITEMAGMENFPSFAQAPWQTDSGAQTFCVPMASVIHGFFYNKKIFNELGLSVPQTREQFFTVLDKVKADGRYIPLSMSGSESWVASELGYQNIGPNYWKGEDGRLALINGQEHLDDSQYVKVFEELARWRAYLGEDGELRDYGTSNELFTSGKAALYVAGSWEIAPFTDKVDFGVMRPPVAKQGDGCFFTDHTDIGMGMNPASKNPQAAMAFLQWLTTPEFAELYTNSLPGFFSLSNHFFDVTNPAAREMMEWRDQCDSTIRVATQILSRGQPKLGDELAEVSQAVLVGKMTPTAAAERLEQGLKRWYAPHQTRKAKEQECQCVEPISPTTRLNTLPVVDIAPVVASDPVPPTEATILSEEG | not soluble
12 | MEYSRDSAEMMMETKRNVYSLEDNKIKRHKSSDLSFSSKERKDKLAERISALQQLVSPYGKTDTASVLLEGMQYIQFLQEQVKVLSAPYLQATPSTTEEEVEEYSLRSKGLCLVPLEYTSEVAQTNGADIWAPVKTPTSSHAFNLSSSNSPFQ | not soluble
13 | MAAKLQKWRNLAGRLDLMNRSGAVSTRRFLHEGPDTVEELLERHLAKKEKPIIDHDEAEFLNRRRLTSTRREALSLYRDILRATRFFTWIDSRGNLWRDVLRENARKEFEAARFETDPEVITRLLIGGSDAVSSALDKLAEKQREMIEKQRRGDQR | soluble
14 | MGSDKIHHHHHHMSDSQTVSAAVAKLYNTYPFPPEALLDEPPPGYNWRWNWLAAHNFCTGQKPQKQDIRILDAGCGTGVSTEYLVHLNPQASVVGIDLSTGALDVAKERCQRSGANRVEFHHLSLFDVEQLPGEFDLINCVGVLHHTSDPIRGIQALAQKLAPGGLMHIFVYGELGRWEIQLMQKAIALLQGDKKGDYRDGVQVGRQIFASLPENNRIVKYEKQRWSLENHKDEHFADMYVHPQEIDYNIETLFELIDASGLEFIGFSNPSFWDLERLLSKAPELVERAKELSDRQLYRLIELLDPEVTHYEFFLGRPPLVKTDWSDDKALLAAIPELNPCIEGFPSQCFFNYNYQIVNLSEPEFEFMQKCDANSTVAEILADVQLGLDEVRKLLQQQLILLAPA | not soluble
15 | MGSDKIHHHHHHMNEEEDAFSYLSKLGLTPYEIKVYKTLLIYGPNSATETAKLSKVPQPRVYDIFESLESKGAVEVSPGKRKIYRAVPIDNFIDRKLIEIRDYKKRIESYIEQQKKFKESNPYLWMIKNNFQIREKMKDVINEAENELIASLNYENIRYLKKYFIDAAKRGITVVIVAFPDAELDFLRTFPEDIVIRIRRGSASQVMIADRKHGLINVESTEDSEGYALYFDENELIHILNYYFYHTIWGPSDMFHDFPVRQNIKFSTAWLSCEAIDSFFKRSYSVSGIVTGYSATGQVKIEGTITGIDLIPGFKHTFFIKDNERVYSVGGKTARMEDIKLETLTMNVWIPNKQAISQKQ | not soluble
16 | MGSDKIHHHHHHMKVVSLLTDFGDFYPGVMKGVILSLAPEARIVDITHSVEPQNILQGAFLLYHSFRYFRNAVHVAVVDPGVGSERRALVIEGKNHFFVGPDNGILYPSAVEDGIKAAYSIKEEISELVGELSSTFHGRDIFAPAAAMVVRGDYTYFEEINKEELEKLELFDCSIQGNKVRCRVVYVDRFGNVVTNLREVKGKGFYFRGVEFPFVKTYSDVDVGKPLSLIGSFGTLELSVREGSAAEMLGIKRGGGWIELEVL | not soluble
17 | MSLATYFMYPSTGGLNTYIAVLKKTLEAQGYTVDVLARKPGPRLHLLSEEINMNTLRKMMSKPLNHYYKKHGQFSEPYIIKQELDRYVFELSSALLPIETYDLIHAQDVVSTRALARVKPAHIPLVTTIHGLYSEERFNRGVIQTKNDHSWKYSLAQEYIGALSADKVIVLTNWMRQRFQDQLNISSHHFETIPNGMFIEEFTNKLTNKTQVHIPESKKFTILCPARLVAEKDHRTLIDAVQLLKKEREDFICLLAGDGELREELEGYCREKEVQDVCLFLGNRNDIPELMNRSDLVVLPSLQENLPFTVMEAQVAGKPLIVSNAGGLPEMVHDGVTGRLFKKRDSRQLAFILKELMDHDEDRQLLGNNAKDWGRSQWSANTFCEKIKTVYAEALEQKKKEPRLMEFESVNRPTYHTLELHRFFEKSLWKKIDQCLPSNYTIPDPAFIKSLTTYEGHHHHHH | not soluble
18 | MDVAGLTDCGLIRKSNQDAFYIDEKHQRFFIVADGMGGHAGGEEASRLAVDHIRQYLETHLEDLQHDPVTLLRQAFLAANHAIVEQQRQNSARADMGTTAVVILLDEKGDRAWCAHVGDSRIYRWRKDQLQQITSDHTWIAQAVQLGSLTIEQARQHPWRHVLSQCLGREDLSQIDIQPIDLEPGDRLLLCSDGLTEELTDDVISIYLSEPNVQKAAAALVDAAKTHGGRDNVTVVVISV | soluble
19 | MIKDQDAEFHVTDSDPTWAETNFFGFFNAEHKLNVGVYALFRPNLGVVSSTICMNSGRAVTPWEADFCDLRSAMPIPTPRSLLDYKLLNTLHVHCLDPNRVWHIGYDDQQGTRIDVRYEALMPAFDIHDPEMDPMCGSESEAGKFAWGTAYDGHFDQTGHFKGSVAIRGREVPIDCVSTMDHSWGARPERGKPNMSWLHAHFSKDLAVHGIFGFDQTRNGVELWLAHGYVMERGRIVGLKAGTGQVERPQERYPEQLQLQVTDAKDRVWKLRGRALTTFPWQCWPNMISFNSLCAWEMNGLKGHGEVQDFFELPQLNALNSVESTRRPSRPL | not soluble
20 | MGSDKIHHHHHHMKIDLIISADDIKEEKVKNKTAVVIDMLRATSVITTALNNGCKRVVPVLTVEEALKKVKEYGKDAILGGERKGLKIEGFDFSNSPMEYTEDVVKGKTLIMTTTNGTRAIKGSETARDILIGSVLNGEAVAEKIVELNNDVVIVNAGTYGEFSIDDFICSGYIINCVMDRMKKLELTDAATTAQYVYKTNEDIKGFVKYAKHYKRIMELGLKKDFEYCCKKDIVKLVPQYTNGEIL | soluble
21 | MAAPGPALCLFDVDGTLTAPRQKITKEMDDFLQKLRQKIKIGVVGGSDFEKVQEQLGNDVVEKYDYVFPENGLVAYKDGKLLCRQNIQSHLGEALIQDLINYCLSYIAKIKLPKKRGTFIEFRNGMLNVSPIGRSCSQEERIEFYELDKKENIRQKFVADLRKEFAGKGLTFSIGGQISFDVFPDGWDKRYCLRHVENDGYKTIYFFGDKTMPGGNDHEIFTDPRTMGYSVTAPEDTRRICELLFS | soluble
22 | SSKIILIPSNIPQEFPEASISNPERLRILAQVKDFIPHESTIVIDKVPTITSEQSTYINICIFNLLEACSSRVLVPGTLVNIDAFYDGESINPVDIYEVNGANFTMENIQLIDEMNNSIGKFN | soluble
23 | MVAQNSVVVIGASGFGRESLDVLEAMKEAGHSLEIIGVVDDNPAAINLQRLAERKIEYLGTLKEWIEGSPKSCKYVLAIGNPTIRHKLSALLDKSGFDAFTAVHPSAVIGSQVVFGSGAVVCSGAVISTNVRLGVHVHINPNVTIGHDSILEDYVSINPAATISGEVLIMEETLIGAAATVLQGLTIGNRSLVGASSCVTKDISAGKVVKGIPARLEHHHHHH | soluble
24 | MYNIGDKIVYPMHGAGVIESIEEREILGKKQSYYVVKIPIGEMKVLIPIKNVDGIGIREVISEEDADKVFLILKNKALPSNTNWNKRYRENMSKIKSGNIFEVADVVRCLMLRDKLKGLSTGEKKMLNSAKQILISELVLAKNMNPMEIEGMIDKYIS | soluble
